Results: PMC2650403

B1: Protector of telomeres 1, variant 1 (POT1v1) (natural protein)
chain: MSLVPATNYIYTPLNQLKGGTIVNVYGVVKFFKPPYLSKGTDYCSVVTIVDQTNVKLTCLLFSGNYEALPIIYKNGDIVRFHRLKIQVYKKETQGITSSGFASLTFEGTLGAPIIPRTSSKYFNFTTEDHKMVEALRVWASTHMSPSWTLLKLCDVQPMQYFDLTCQLLGKAEVDGASFLLKVWDGTRTPFPSWRVLIQDLVLEGDLSHIHRLQNLTIDILVYDNHVHVARSLKVGSFLRIYSLHTKLQSMNSENQTMLSLEFHLHGGTSYGRGIRVLPESNSDVDQLKKDLESANLTANQHSDVICQSEPDDSFPSSGSVSLYEVERCQQLSATILTDHQYLERTPLCAILKQKAPQQYRIRAKLRSYKPRRLFQSVKLHCPKCHLLQEVPHEGDLDIIFQDGATKTPDVKLQNTSLYDSKIWTTKNQKGRKVAVHFVKNNGILPLSNECLLLIEGGTLSEICKLSNKFNSVIPVRSGHEDLELLDLSAPFLIQGTIHHYGCKQCSSLRSIQNLNSLVDKTSWIPSSVAEALGIVPLQYVFVMTFTLDDGTGVLEAYLMDSDKFFQIPASEVLMDDDLQKSVDMIMDMFCPPGIKIDAYPWLECFIKSYNVTNGTDNQICYQIFDTTVAEDVI

How the values were obtained:
[1] = target: Werner syndrome protein (WRN), recombinant His6-tagged, wild type (human) (UniProt Q14191)
[2] = target: WRN-E84A, full-length WRN with the N-terminal exonuclease inactivating mutation E84 to alanine (human) (UniProt Q14191)

Molecule | radiometric DNA helicase assay, percent unwinding of a telomeric-repeat substrate lacking the 3′-ss tail by WRN (3 nM) with RPA 6 to 24 nM [1] | radiometric DNA helicase assay, increase in unwound product of a 30-nt gap telomeric substrate pre-bound with POT1v1 (6 to 48 nM), WRN-E84A 6 nM; value at the 1:8 ratio of WRN-E84A to POT1v1 [2]
Recombinant human replication protein A (RPA) (complex) | 22% | –
B1 | – | 10%
